We go through six molecules from patent US20240255507A1 (SYSMEX, published 2024).

B1: HKU9 wild-type RBD (other)
chain: SYCTPPYSVLQDPPQPVVWRRYMLYDCVFDFTVVVDSLPTHQLQCYGVSPRRLASMCYGSVTLDVMRINETHLNNLFNRVPDTFSLYNYALPDNFYGCLHAFYLNSTAPYAVANRFPIKPGGRQSNSAFIDTVINAAHYSPFSYVYGLAVITLKPAAGSKLVCPVAN

The target of test [1] is T1, ACE2-hFc (AC2-H 5257, Acrobiosystems) (human, UniProt Q9BYF1 18-740).
T1 construct: also called ACE2-Fc
The test can be described thus: ELISA, antigen coated.

In test [2] the target is B1. The test can be described thus: ELISA, antigen coated. (In general: ELISA stands for enzyme-linked immunosorbent assay.)
The target of test [3] is B1. The test can be described thus: ELISA, antigen coated, binder 1 µg/mL, chemiluminescence.
The target in test [4] is T2, Hp wild-type RBD (coronavirus Hp strain (Hibecovirus …)). The test can be described thus: ELISA, antigen coated.
Test [5] concerns the target T3, GCCDC1 wild-type RBD (coronavirus GCCDC1 strain (Nobecovirus …)). The test can be described thus: ELISA, antigen coated.
Test [6] addresses T4, Zaria wild-type RBD (coronavirus Zaria strain (Hibecovirus …)). The test can be described thus: ELISA, antigen coated.
Test [7] concerns the target T2, Hp wild-type RBD. The test can be described thus: ELISA, antigen coated, binder 1 µg/mL, chemiluminescence.
Test [8] deals with SARS-CoV-2 wild-type RBD (SARS-CoV-2, UniProt P0DTC2 319-541). Described as above.
Test [9] concerns the target T3, GCCDC1 wild-type RBD. The description is as above.
For test [10], the target named is T4, Zaria wild-type RBD. The test is described as above.

T1 sequence (Q9BYF1 18-740 limits assumed): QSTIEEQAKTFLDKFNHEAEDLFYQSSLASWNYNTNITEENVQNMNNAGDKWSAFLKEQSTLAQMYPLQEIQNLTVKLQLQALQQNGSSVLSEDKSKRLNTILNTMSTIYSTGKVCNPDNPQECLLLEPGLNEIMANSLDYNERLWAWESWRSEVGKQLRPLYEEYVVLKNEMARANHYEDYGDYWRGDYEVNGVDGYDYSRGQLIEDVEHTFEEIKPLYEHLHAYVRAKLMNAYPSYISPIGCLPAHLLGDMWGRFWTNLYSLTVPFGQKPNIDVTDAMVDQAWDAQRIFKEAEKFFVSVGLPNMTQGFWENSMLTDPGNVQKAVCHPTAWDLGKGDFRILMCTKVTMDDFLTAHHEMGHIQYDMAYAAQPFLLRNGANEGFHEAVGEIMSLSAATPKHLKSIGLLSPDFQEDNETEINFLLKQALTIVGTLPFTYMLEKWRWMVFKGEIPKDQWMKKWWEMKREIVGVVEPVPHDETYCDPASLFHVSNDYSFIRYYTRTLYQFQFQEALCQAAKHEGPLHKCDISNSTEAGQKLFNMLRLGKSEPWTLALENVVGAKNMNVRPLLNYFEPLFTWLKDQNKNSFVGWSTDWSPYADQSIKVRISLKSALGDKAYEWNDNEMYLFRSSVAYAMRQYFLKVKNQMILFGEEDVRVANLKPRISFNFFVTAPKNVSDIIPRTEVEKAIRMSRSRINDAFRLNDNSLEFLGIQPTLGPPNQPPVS

For B1, the binding result in [1] is on record as “no binding (tested: 1 µg/mL)”.

B2: REGN10933 (antibody, V domains shown)
VH: QVQLVESGGGLVKPGGSLRLSCAASGFTFSDYYMSWIRQAPGKGLEWVSYITYSGSTIYYADSVKGRFTISRDNAKSSLYLQMNSLRAEDTAVYYCARDRGTTMVPFDYWGQGTLVTVSS
VL: DIQMTQSPSSLSASVGDRVTITCQASQDITNYLNWYQQKPGKAPKLLIYAASNLETGVPSRFSGSGSGTDFTFTISGLQPEDIATYYCQQYDNLPLTFGGGTKVEIKR
Take B2: the binding result in test [2] is “no binding (tested: 1 µg/mL)”. This molecule also gave a signal intensity in test [3] of 943.

B3: REGN10987 (antibody, V domains shown)
VH: QVQLVESGGGVVQPGRSLRLSCAASGFTFSNYAMYWVRQAPGKGLEWVAVISYDGSNKYYADSVKGRFTISRDNSKNTLYLQMNSLRTEDTAVYYCASGSDYGDYLLVYWGQGTLVTVSS
VL: QSALTQPASVSGSPGQSITISCTGTSSDVGGYNYVSWYQQHPGKAPKLMIYDVSKRPSGVSNRFSGSKSGNTASLTISGLQSEDEADYYCNSLTSISTWVFGGGTKLTVLR
Take B3: the binding result in [2] was “no binding (tested: 1 µg/mL)”. Also, the signal intensity in [3] was found to be 1120.

B4: CV30 (antibody, V domains shown)
VH: EVQLVESGGGLIQPGGSLRLSCAASGVIVSSNYMSWVRQAPGKGLEWVSVIYSGGSTYYADSVKGRFTISRDNSKNTLYLQMNSLRAEDTAVYYCARDLDVSGGMDVWGQGTTVTVSS
VL: not shown
Turning to B4, the binding result in [4], in test [2], in [5] and in [6] was “no binding (tested: 1 µg/mL)” throughout. In addition, the signal intensity in [7] was 150; in [3], 583; in test [8] it was 921000; in test [9], 130; in [10] it was 100.

B5: BD23 (antibody, V domains shown)
VH: QVQLVQSGSELKKPGASVKVSCKASGYTFTSYAMNWVRQAPGQGLEWMGWINTNTGNPTYAQGFTGRFVFSLDTSVSTAYLQISSLKAEDTAVYYCARPQGGSSWYRDYYYGMDVWGQGTTVTVSS
VL: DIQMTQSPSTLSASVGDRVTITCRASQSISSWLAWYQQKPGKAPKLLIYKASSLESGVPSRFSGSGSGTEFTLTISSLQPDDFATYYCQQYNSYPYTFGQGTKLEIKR
As for B5, in test [2], the binding result was “no binding (tested: 1 µg/mL)”. Also, in test [3], the signal intensity amounted to 803.

B6: CR3022 (antibody, V domains shown)
VH: QMQLVQSGTEVKKPGESLKISCKGSGYGFITYWIGWVRQMPGKGLEWMGIIYPGDSETRYSPSFQGQVTISADKSINTAYLQWSSLKASDTAIYYCAGGSGISTPMDVWGQGTTVTVSS
VL: DIQMTQSPSSLSASVGDRVTITCRASQSIYSALNWYQQKPGKAPKLLIYAASALQSGVPSRFSGSGSGTDFTLTISSLQPEDFATYYCQQTDIHPYTFGQGTKVEIKR
For B6, the binding result in test [4], in [2], in test [5] and in test [6] was “no binding (tested: 1 µg/mL)” in each case. The signal intensity in test [7] amounted to 100; in test [3], 433; in test [8], 1.07e+06; in test [9], 100; in test [10], 330.
